Data reported in article PMC10530652 (BME Frontiers, 2021).

What was measured:
[1] = test system: MMP-12; conditions: placebo-controlled, 55 COPD patients; cited from earlier work
From the text: (§1) MMP inhibition has been identified as a target for drug interventions in inflammatory diseases. MMP inhibitors used in trials as cancer therapies were disappointing due to lack of efficacy and significant adverse effects. Studies have also been limited by a lack of quantifiable biomarkers to reflect on their in vivo and functional activity. […] It had previously been used in a phase 2A safety and tolerab ...

[2] = molecular target: T1, MMP-9 (Homo sapiens, UniProt P14780); conditions: placebo-controlled, 55 COPD patients; cited from earlier work
T1 construct: recombinant MMPs (Enzo Life Sciences) (active domains of MMP-1, MMP-2, MMP-3, MMP-7, MMP-8, MMP-9, MMP-10, MMP-11, MMP-12, and MMP-13); purchased Enzo Life Sciences
T1 sequence (P14780 107-444 limits assumed): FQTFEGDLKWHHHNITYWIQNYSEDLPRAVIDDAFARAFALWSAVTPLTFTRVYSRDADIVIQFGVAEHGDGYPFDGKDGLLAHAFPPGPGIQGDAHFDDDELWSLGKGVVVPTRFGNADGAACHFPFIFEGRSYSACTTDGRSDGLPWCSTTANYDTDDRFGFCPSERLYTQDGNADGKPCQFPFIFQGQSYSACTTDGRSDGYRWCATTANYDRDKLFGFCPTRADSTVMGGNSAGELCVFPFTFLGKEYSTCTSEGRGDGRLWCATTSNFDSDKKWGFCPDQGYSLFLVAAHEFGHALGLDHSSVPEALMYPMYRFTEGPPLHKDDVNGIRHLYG
From the text: as §1

[3] = test system: emphysema patients; conditions: 74 emphysema patients, placebo or AZD1236 75 mg twice daily for 6 weeks; cited from earlier work
From the text: as §1

[4] = test system: patients; assay: Clinical observations in patients after procedure; type: in vivo, human
From the text: Table S2: Clinical observations.

[5] = test system: patients with fibroproliferative lung disease; assay: Adverse events in the FIB One clinical study; type: in vivo, human
Procedure: In initial exploratory testing, 8 patients with either endobronchial tumour or parenchymal fibrosis underwent FIB One microdosing (<100 μg, <5 mL). FIB One was administered using a delivery catheter (ERBE APC catheter or TLBC) passed out of the working channel of the wedged bronchoscope into the bronchus allowing distal dissipation of the compound for alveolar imaging or applied directly onto visible tumour. FCFM imaging was performed pre- and postinstillation of FIB One, with the fibre tip positioned at the bronchial mucosa or passed into the alveolar region following transbronchial puncture, as appropriate for the clinical indication. Images were recorded for at least 30 s at 12 frames/second.
In subsequent testing the Miniaturized Alveoflex™-TLBC combination replaced the Alveoflex™ fibre. The entire apparatus was passed transbronchially to allow direct alveolar imaging before localised delivery of agents. Once transbronchial pass was accomplished, baseline lung imaging was recorded for at least 30 sec. A 500 μL microdose of either AZD1236 (14 μg/mL) or sterile PBS (control) was administered under direct observation, and further imaging was obtained for >60 sec. 500 μL of FIB One (20 μg/mL) (delivered only after at least 60s to allow MMP inhibition) was then dosed to the same area with a further 90-120 sec of imaging captured. If considerable movement due to breathing or coughing was encountered, imaging was halted and a new segment identified. Up to 6 segments of interest were investigated per patient determined by patient tolerance.
Table S5: Patient demographics and AEs part B. Three patients reported adverse events within the 24h period post procedure all of which are commonly associated with flexible bronchoscopy.

[6] = Stability study of FIB One aqueous formulation (HPLC); type: physicochemical; conditions: for Conc. / pH: aqueous formulation; for Conc. / ∆% / Total imp. RRT(%): HPLC; for ∆%: change of conc.
[7] = fridge 2-8 °C, 1m, 1st of 2 vials
[8] = fridge 2-8 °C, 1m, 2nd of 2 vials
[9] = fridge 2-8 °C, 3m, 1st of 2 vials
[10] = fridge 2-8 °C, 3m, 2nd of 2 vials
[11] = fridge 2-8 °C, 6m, 1st of 2 vials
[12] = fridge 2-8 °C, 6m, 2nd of 2 vials
[13] = fridge 2-8 °C, 9m, 1st of 2 vials
[14] = fridge 2-8 °C, 9m, 2nd of 2 vials
[15] = fridge 2-8 °C, 10m, 1st of 2 vials
[16] = fridge 2-8 °C, 10m, 2nd of 2 vials
[17] = fridge 2-8 °C, 12m, 1st of 2 vials
[18] = fridge 2-8 °C, 12m, 2nd of 2 vials
[19] = fridge 2-8 °C, 21m, 1st of 2 vials
[20] = fridge 2-8 °C, 21m, 2nd of 2 vials
[21] = fridge 2-8 °C, 24m, 1st of 2 vials
[22] = fridge 2-8 °C, 24m, 2nd of 2 vials
[23] = fridge 2-8 °C, 24h, 1st of 2 vials
[24] = fridge 2-8 °C, 24h, 2nd of 2 vials
[25] = fridge 2-8 °C, 14d, 1st of 2 vials
[26] = fridge 2-8 °C, 14d, 2nd of 2 vials

## AZD1236
[1]
  MMP-12 inhibition in induced sputum: failed to demonstrate
[2]
  MMP-9 inhibition in induced sputum: failed to demonstrate
[3]
  effect on the secondary lung physiology endpoints: no effect

## (Pro-Phe-Gly-Nle-Lys-βAla)3 [FIB One]
[4]; Hour 1, mean (s.d.), baseline 16 (1)
  Respiratory Rate: 16 (2) bpm
[4]; Hour 1, mean (s.d.), baseline 36.6 (0.5)
  Temperature: 36.4 (0.4) C
[4]; Hour 1, mean (s.d.), baseline 76 (13)
  Heart Rate: 69 (13) bpm
[4]; Hour 1, mean (s.d.), baseline 96 (1)
  Oxygen Saturations: 97 (2) %
[4]; Hour 1, mean (s.d.), baseline 142 (22)
  Systolic BP: 124 (20) mmHg
[4]; Hour 2, mean (s.d.)
  Heart Rate: 67 (18) bpm
  Oxygen Saturations: 97 (2) %
  Respiratory Rate: 17 (1) bpm
  Systolic BP: 124 (18) mmHg
  Temperature: 36.4 (0.6) C
[4]; Hour 3, mean (s.d.)
  Heart Rate: 71 (12) bpm
  Oxygen Saturations: 96 (2) %
  Respiratory Rate: 16 (1) bpm
  Systolic BP: 122 (32) mmHg
  Temperature: 36.5 (0.4) C
[4]; Hour 4, mean (s.d.)
  Heart Rate: 77 (14) bpm
  Oxygen Saturations: 96 (2) %
  Respiratory Rate: 16 (1) bpm
  Systolic BP: 125 (17) mmHg
  Temperature: 36.8 (0.4) C
[4]; between baseline and point of discharge from study (hour 4)
  clinically significant variation of clinical observations: no clinically significant variation
[5]; Part A, one line per patient DO01-DO08, FIB One microdose <100 μg
  Adverse Events: Nil and Haemoptysis and Cough and Fever
[5]; Part B, one line per patient DO09-DO17, FIB One with or without AZD1236 via TLBC, within 24h post procedure
  Adverse Events: Nil and Cough and Cough Fever and Haemoptysis
[5]; eight patients, endobronchial FIB One bolus
  significant adverse events: no significant adverse events
[6]; after 24 months, stored at 2-8°C
  degradation in aqueous formulation of the drug product (HPLC traces): no degradation
[6]; [7]
  Conc.: 80.16 µg per 5mL
  ∆%: -10.9%
  Total imp. RRT(%): ND/NQ ND/NQ
[6]; [8]
  Conc.: 77.20 µg per 5mL
  ∆%: -14.2%
  Total imp. RRT(%): ND/NQ ND/NQ
[6]; [9]
  Conc.: 78.87 µg per 5mL
  ∆%: -12.4%
  Total imp. RRT(%): ND/NQ ND/NQ
[6]; [10]
  Conc.: 72.63 µg per 5mL
  ∆%: -19.3%
  Total imp. RRT(%): ND/NQ ND/NQ
[6]; [11]
  Conc.: 64.94 µg per 5mL
  ∆%: -27.8%
  Total imp. RRT(%): ND/NQ ND/NQ
[6]; [12]
  Conc.: 72.74 µg per 5mL
  ∆%: -19.2%
  Total imp. RRT(%): ND/NQ ND/NQ
[6]; [13]
  Conc.: 70.54 µg per 5mL
  ∆%: -21.6%
  Total imp. RRT(%): ND/NQ ND/NQ
[6]; [14]
  Conc.: 66.27 µg per 5mL
  ∆%: -26.4%
  Total imp. RRT(%): ND/NQ ND/NQ
[6]; [15]
  Conc.: 62.55 µg per 5mL
  ∆%: -30.5%
  Total imp. RRT(%): ND/NQ ND/NQ
[6]; [16]
  Conc.: 67.69 µg per 5mL
  ∆%: -24.8%
  Total imp. RRT(%): ND/NQ ND/NQ
[6]; [17]
  pH: 7.5
  Conc.: 60.40 µg per 5mL
  ∆%: -32.9%
  Total imp. RRT(%): ND/NQ ND/NQ
[6]; [18]
  pH: 7.5
  Conc.: 57.67 µg per 5mL
  ∆%: -35.9%
  Total imp. RRT(%): ND/NQ ND/NQ
[6]; [19]
  pH: 7.5
  Conc.: 65.38 µg per 5mL
  ∆%: -27.3%
  Total imp. RRT(%): ND/NQ ND/NQ
[6]; [20]
  pH: 7.5
  Conc.: 59.62 µg per 5mL
  ∆%: -33.8%
  Total imp. RRT(%): ND/NQ ND/NQ
[6]; [21]
  pH: 7.5
  Conc.: 58.4 µg per 5mL
  ∆%: -35.1%
  Total imp. RRT(%): ND/NQ ND/NQ
[6]; [22]
  pH: 7.5
  Conc.: 58.4 µg per 5mL
  ∆%: -35.1%
  Total imp. RRT(%): ND/NQ ND/NQ
[6]; [23]
  Conc.: 81.63 µg per 5mL
  ∆%: -9.3%
  Total imp. RRT(%): ND/NQ ND/NQ
[6]; [24]
  Conc.: 82.28 µg per 5mL
  ∆%: -8.6%
  Total imp. RRT(%): ND/NQ ND/NQ
[6]; [25]
  Conc.: 76.85 µg per 5mL
  ∆%: -14.6%
  Total imp. RRT(%): ND/NQ ND/NQ
[6]; [26]
  Conc.: 84.60 µg per 5mL
  ∆%: -6.1%
  Total imp. RRT(%): ND/NQ ND/NQ
[6]; timepoint 0
  pH: 7.5
